Data as given in patent US20060020110A1, “Synthetic peptides that bind to the hepatitis B virus core and E antigens” (priority 2000, published 2006).
Where two headings read alike, the source gives them in different places.

Assays:
HBcAg [1] = biological target: T1, HBcAg (Hepatitis B virus genotype D subtype ayw, UniProt P03146); settings: for Binding of 10 μg/ml HBcAg to dilutions of support-bound peptide (in words): at low concentrations, TABLE 9; for Binding to HBcAg (in words): support-bound peptides
From the text: (§1) One approach to rational drug design involves sequential amino acid deletion of a known binding partner starting from either the amino or carboxy termini. Amino-terminal deletions of the binding partners of SEQ. ID. Nos. 5 and 17 were made and these peptide fragments were joined to a support and analyzed for the ability to bind HBcAg. […] ID. […] The amino-terminal deletions of the peptide of SEQ. ID. […] The amino-terminal deletion products of the peptide of SEQ. ID. […] ID.
To determine whether a candidate binding partner bound to HBcAg and/or HbeAg, a multimeric support-based binding assay was performed. Accordingly, synthetic peptides corresponding to the VH and VL domains of the sequenced mAbs were passively adsorbed to 96 well microplates in serial dilutions starting at 200 μg/ml. The peptide coated plates were then incubated with HBcAg and HBeAg serially diluted in PBS-GT. The amount of HBcAg and HBeAg bound by the peptides was then detected using a mAb directed to an epitope common to HBcAg and HBeAg (See Sällberg et al., J General Virology 74:1335-1340 (1993), herein expressly incorportaed by reference in its entirety) diluted 1:3000 in PBS-GT. The quantity of bound mAb was determined by addition by peroxidase labeled rabbit anti-mouse IgG (P260, Dako A S, Denmark). The plates were developed by incubation with ortho-phenylene-diamine (Sigma) and the absorbance at 492 nm was evaluated.
The converse of an aspect of this experiment was also performed. That is, various dilutions of support-bound binding partners (SEQ. ID. Nos. 5, 16, 17, 28, and 29) were contacted with 10 μg/ml of HBcAg and binding was evaluated. ID.

HBeAg [2] = biological target: T2, HBeAg (Hepatitis B virus genotype D subtype ayw, UniProt P0C573); assay: Binding of HBeAg to support-bound peptides (EIA); settings: antigen at concentrations as low as 0.67 μg/ml, TABLE 8
T2 construct: containing nine residues of pre-core and the 150 first residues of HBcAg; made in house

HBcAg [3] = biological target: T1, HBcAg; settings: peptide contacted with HBcAg prior to antibody
From the text: as §1
(§2) Variations of the characterization assays described above include competitive binding assays. […] Initial experiments were conducted by contacting binding partner to HBcAg prior to introducing the antibody. […] ID. […] ID. […] ID. […] ID. […] ID. […] ID.

HBcAg [4] = biological target: T1, HBcAg; settings: fusion peptide in solution 20 μg/well
Description: To evaluate the efficacy of the specificity exchangers described above, several binding assays using a mAb specific for HSV gG2 were conducted. In one assay, the various specificity exchangers were coated onto microtiterplates and were bound with the mAb specific for HSV gG2. […] ID. […] In another assay, HBcAg was coated onto microtiter plates, specificity exchanger was added (20 μg/well), and the binding of the mAb specific for HSV gG2 was determined. […] ID. […] In another binding assay, HBeAg was coated onto microtiter plates, specificity exchanger was added (20 μg/well), and the binding of the mAb specific for HSV gG2 was determined. […] ID. […] The characterization assays used to evaluate binding partners can also be used and/or modified for the analysis of the specificity exchangers.

HBeAg [5] = biological target: T2, HBeAg; assay: Redirection of HSV gG2 mAb to HBeAg on solid phase by fusion peptide in solution; format: binding; settings: fusion peptide in solution 20 μg/well
From the text: (§3) ID. […] The specificity exchangers provided in SEQ. ID. […] Similarly, the specificity exchangers provided in SEQ. ID.

[6] = test system: B cell - mediated antigen presentation of HBcAg to experienced T cells; assay: Inhibition of B cell-mediated antigen presentation of HBcAg to experienced T cells; format: cell-based, Balb/c mice
Description: A characterization assay that was used to evaluate the ability of a binding partner to modulate a host immune system response to HBV was conducted as follows. Groups of Balb/c mice were immunized subcutaneously with 20 μg HBcAg. Ten days later, draining lymph nodes were harvested and experienced CD4^+ T cells were purified using anti-CD4 coated magnetic beads (Dynal A S, Oslo, Norway) according to the manufacturers instructions. Naïve B cells were obtained from syngeneic mice, which had not been immunized. These B cells were used as antigen presenting cells in the characterization assay.
The ability of the different mAbs and peptides to block B cell uptake and antigen presentation of HBcAg-peptides to HBcAg-specific CD4+ T cells was then tested in vitro. The cell populations were mixed at a B/T cell ratio of 1:5 and added at a final concentration of approximately 2.5×10^5 to 5.0×10^5 cells per well in a 96 well microplate. Approximately, 20 μg of HBcAg was preincubated with the binding partner. The binding partner mixtures were then added to the cells and the plates were incubated for 26 to 96 hours at 37° C. The effect of the binding partners on T cell proliferation was determined by monitoring [^3H] thymidine incorporation.

HBcAg [7] = biological target: T1, HBcAg; settings: for Lowest peptide concentration that prevented binding of mAb 4-2: peptide in the presence of mAb 4-2
Description: as §2

mAb specific for HSV gG2 = assay: gG2 mAb binding to fusion peptide on solid phase; settings: for gG2 mAb binding to indicated antigen on solid phase: fusion peptide: no addition of fusion peptide in solution
From the text: as §3

[8] = antigen at concentrations as low as 0.67 μg/ml, TABLE 8
[9] = peptide 100 μg/ml in the presence of mAb 4-2
[10] = peptide 200 μg/ml in the presence of mAb 4-2
[11] = concentrations as low as 50 μg/ml
[12] = concentrations as low as 100 μg/ml

T1 sequence (P03146 whole entry, the tested form may be a part): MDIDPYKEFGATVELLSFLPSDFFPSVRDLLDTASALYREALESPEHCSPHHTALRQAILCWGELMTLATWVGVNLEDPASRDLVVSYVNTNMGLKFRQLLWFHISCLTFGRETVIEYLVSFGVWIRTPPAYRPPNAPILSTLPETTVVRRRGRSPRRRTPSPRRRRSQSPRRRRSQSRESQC
T2 sequence (P0C573 21-179): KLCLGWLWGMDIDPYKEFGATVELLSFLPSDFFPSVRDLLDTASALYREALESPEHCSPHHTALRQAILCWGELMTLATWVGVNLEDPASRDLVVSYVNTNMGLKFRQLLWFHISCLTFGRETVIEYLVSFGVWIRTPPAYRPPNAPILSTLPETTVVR

## ISCRASQSVSTSSYSYMHWY (Synthetically prepared amino acid sequence) [Peptide 14]
HBcAg [1]
  Binding of 10 μg/ml HBcAg to dilutions of support-bound peptide (in words): appreciable binding at low concentrations
HBcAg [1]; TABLE 7
  Binding to HBcAg (in words): high affinity
HBcAg [1]; [8]
  Binding to HBcAg (in words): appreciable binding
HBeAg [2]
  Binding to HBeAg (in words): appreciable binding
HBcAg [3]; peptide 200 μg/ml
  Inhibition of mAb 4-2 binding to HBcAg (in words): able to inhibit binding of mAb 4-2

## QQKPGQPPKLLIKYASNLES (Synthetically prepared amino acid sequence) [Peptide 16]
HBcAg [4]
  gG2 mAb binding to indicated antigen on solid phase: HBcAg: 0.038
HBeAg [5]
  gG2 mAb binding to indicated antigen on solid phase: HBeAg: 0.022
[6]
  Inhibition of B cell mediated antigen presentation of HBcAg to specific CD4+ T cells (in words): no inhibition
[6]; T + B cells, 20 μg HBcAg preincubated with inhibitor, positive control 573, background 110
  cpm ([3H] thymidine incorporation, T cell proliferation): 572 cpm
[6]; T + B cells, 20 μg HBcAg, calculated from cpm versus positive control and background proliferation
  % inhibition of APC: 0%

## LAVSLGQRATISCRASQSVS (Synthetically prepared amino acid sequence) [Peptide 13]
HBcAg [1]
  Binding of 10 μg/ml HBcAg to dilutions of support-bound peptide (in words): appreciable binding at low concentrations
HBcAg [1]; TABLE 7
  Binding to HBcAg (in words): high affinity
HBcAg [1]; [8]
  Binding to HBcAg (in words): appreciable binding
HBeAg [2]
  Binding to HBeAg (in words): appreciable binding
HBcAg [3]; peptide 200 μg/ml
  Inhibition of mAb 4-2 binding to HBcAg (in words): able to inhibit binding of mAb 4-2
HBcAg [7]; [9]
  Competition with mAb 4-2 for binding to HBcAg (in words): effectively competed with mAb 4-2
HBcAg [7]; [10]
  Competition with mAb 4-2 for binding to HBcAg (in words): significantly inhibited
HBcAg [7]
  Lowest peptide concentration that prevented binding of mAb 4-2: 6.25 µg/mL

## VKLSCKASGYIFTSGGPEEFE [SEQ. ID. No. 76]
mAb specific for HSV gG2
  gG2 mAb binding to indicated antigen on solid phase: fusion peptide: 0.018
HBcAg [4]
  gG2 mAb binding to indicated antigen on solid phase: HBcAg: 0.025
HBeAg [5]
  gG2 mAb binding to indicated antigen on solid phase: HBeAg: 0.024

## VKLSCKASGYIFTSEHRGGPE [SEQ. ID. No. 73]
mAb specific for HSV gG2
  gG2 mAb binding to indicated antigen on solid phase: fusion peptide: 0.060
HBcAg [4]
  gG2 mAb binding to indicated antigen on solid phase: HBcAg: 0.038
HBeAg [5]
  gG2 mAb binding to indicated antigen on solid phase: HBeAg: 0.029

## KLSCKASGYIFTSRGGPEEFE [SEQ. ID. No. 72]
mAb specific for HSV gG2
  gG2 mAb binding to indicated antigen on solid phase: fusion peptide: 0.062
HBcAg [4]
  gG2 mAb binding to indicated antigen on solid phase: HBcAg: 0.016
HBeAg [5]
  gG2 mAb binding to indicated antigen on solid phase: HBeAg: 0.040

## VKPGASVKLSCKASGYIFTS (Synthetically prepared amino acid sequence) [Peptide 2]
HBcAg [1]
  Binding of 10 μg/ml HBcAg to dilutions of support-bound peptide (in words): appreciable binding at low concentrations
HBcAg [1]; TABLE 7
  Binding to HBcAg (in words): high affinity
HBcAg [1]; [8]
  Binding to HBcAg (in words): appreciable binding
HBeAg [2]
  Binding to HBeAg (in words): appreciable binding
HBcAg [3]; [11]
  Inhibition of mAb 4-2 binding to HBcAg (in words): appreciably reduced binding of mAb 4-2
HBcAg [3]; [12]
  Inhibition of mAb 4-2 binding to HBcAg (in words): effectively reduced binding of the antibody
HBcAg [3]; peptide 200 μg/ml
  Inhibition of mAb 4-2 binding to HBcAg (in words): able to inhibit binding of mAb 4-2
HBcAg [7]; [9]
  Competition with mAb 4-2 for binding to HBcAg (in words): effectively competed with mAb 4-2
HBcAg [7]; [10]
  Competition with mAb 4-2 for binding to HBcAg (in words): significantly inhibited
HBcAg [7]
  Lowest peptide concentration that prevented binding of mAb 4-2: 6.25 µg/mL

## CKASGYSFTGYNMNWVKQSH (Synthetically prepared amino acid sequence) [Peptide 26]
HBcAg [1]; TABLE 7
  Binding to HBcAg (in words): high affinity
HBcAg [1]; [8]
  Binding to HBcAg (in words): appreciable binding
HBeAg [2]
  Binding to HBeAg (in words): appreciable binding
HBcAg [3]; [11]
  Inhibition of mAb 4-2 binding to HBcAg (in words): appreciably reduced binding of mAb 4-2
HBcAg [3]; [12]
  Inhibition of mAb 4-2 binding to HBcAg (in words): effectively reduced binding of the antibody
HBcAg [3]; peptide 200 μg/ml
  Inhibition of mAb 4-2 binding to HBcAg (in words): able to inhibit binding of mAb 4-2
HBcAg [7]; [9]
  Competition with mAb 4-2 for binding to HBcAg (in words): effectively competed with mAb 4-2
HBcAg [7]; [10]
  Competition with mAb 4-2 for binding to HBcAg (in words): significantly inhibited

## KLSCKASGYIFTSEHRGGPEE [SEQ. ID. No. 70]
mAb specific for HSV gG2
  gG2 mAb binding to indicated antigen on solid phase: fusion peptide: 0.040
HBcAg [4]
  gG2 mAb binding to indicated antigen on solid phase: HBcAg: 0.020
HBeAg [5]
  gG2 mAb binding to indicated antigen on solid phase: HBeAg: 0.022

## VKPGASVKISCKASGYSFTG (Synthetically prepared amino acid sequence) [Peptide 25]
HBcAg [1]
  Binding of 10 μg/ml HBcAg to dilutions of support-bound peptide (in words): appreciable binding at low concentrations
HBcAg [1]; TABLE 7
  Binding to HBcAg (in words): high affinity
HBcAg [1]; [8]
  Binding to HBcAg (in words): appreciable binding
HBeAg [2]
  Binding to HBeAg (in words): appreciable binding
HBcAg [3]; [12]
  Inhibition of mAb 4-2 binding to HBcAg (in words): effectively reduced binding of the antibody
HBcAg [3]; peptide 200 μg/ml
  Inhibition of mAb 4-2 binding to HBcAg (in words): able to inhibit binding of mAb 4-2
HBcAg [7]; [9]
  Competition with mAb 4-2 for binding to HBcAg (in words): effectively competed with mAb 4-2
HBcAg [7]; [10]
  Competition with mAb 4-2 for binding to HBcAg (in words): significantly inhibited
HBcAg [7]
  Lowest peptide concentration that prevented binding of mAb 4-2: 12.5 µg/mL

## VKLSCKASGYIFTSHRGGPEE [SEQ. ID. No. 75]
mAb specific for HSV gG2
  gG2 mAb binding to indicated antigen on solid phase: fusion peptide: 0.213
mAb specific for HSV gG2; specificity exchanger coated onto microtiterplates
  Binding of mAb specific for HSV gG2 to coated specificity exchanger (in words): appreciably bound the mAb
HBcAg [4]
  gG2 mAb binding to indicated antigen on solid phase: HBcAg: 0.037
HBeAg [5]
  gG2 mAb binding to indicated antigen on solid phase: HBeAg: 0.032
